Test results taken from the RNAGym collection of RNA variant scans (doi:10.1073/pnas.2313332121).
Fewer inactive variants are shown than the library holds.

B1: TPR 5TU (parent)
chain: GGAUCUUCUCGAUCUAACAAAAAAGACAAAUCUGCCACAAAGCUUGAGAGCAUCUUCGGAUGCAGAGGCGGCAGCCUUCGGUGGCGCGAUAGCGCCAACGUUCUCAACUAUGACACGCAAAACGCGUGCUCCGUUGAAUGGAGUUUAUCAUG

Variants of: B1
Test: polymerase ribozyme fitness, log enrichment relative to wild type (log ratio); higher = more active; in vitro selection for triplet polymerase activity
Method in brief: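 Each subunit of a heterodimeric triplet polymerase ribozyme was mutagenized into a library by PCR, transcribed, and subjected to one round of in vitro selection, run in triplicate. Libraries were annealed with a biotinylated primer, the partner subunit and triplets, incubated frozen at −7 °C, and extended constructs were gel-excised, captured on streptavidin beads and recovered by RT-PCR. Input and output libraries were sequenced on Illumina, keeping genotypes with ≥10 input reads and ≥1 read per output. Fitness is log base 2 of genotype enrichment divided by wild-type enrichment, from inverse-variance-weighted replicate averages.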

Variant | polymerase ribozyme fitness (log ratio)
A40G U53A A73U C103G | ≤ -4.2
A40C G50A C95U U148C | ≤ -4.2
A40G A73G G86A | -4.16
A40G G50U U56A G83C | -4.02
A40G A41U A49U G58C G74U C85A U139G G141C U148C | ≤ -4.2
A40U A91C A120C C129A U151A | ≤ -4.2
A40G A41G G67C A120C | ≤ -4.2
A40G C125G | -2.5
A40C U82C G94U | -0.916
A40G G86A C95U C103G C108U C125G | ≤ -4.2
A40G U82G | -1.38
A40C G83C | 0.449
A40U A89C C114U | -2.95
A40U C69A G143C | -2.79
A40C U82G G94A | 0.746
A40C U55A A89C | 0.0362
A40C G70A | -2.97
A40G C93U A106G C118U | -3.47
A40C G62U A119U | -0.408
A40C G94U C129G U139A G141U U146C | ≤ -4.2
A40G G42U G74C | ≤ -4.2
A40C G68U G86A C103G | ≤ -4.2
A40G G58C C79G C87U G136U | ≤ -4.2
A40U C85A U144A | -0.577

Variant | polymerase ribozyme fitness (log ratio)
A40G C116G A120U | -1.72
A40G A60G U61C G84A | -3.52
A40C G48A G58A C87U | -2.55
A40G G94C | -1.82
A40C G92C | -1.84
A40U C85G | -1.32
A40U C85A | -1.44
A40C U144A | -0.312
A40G A64C G70A C114U | ≤ -4.2
A40U A91G | -3.33
A40G A115G A137G C149U | -4.02
A40G G81A G88C | ≤ -4.2
A40C G46A A91G U104G A119G U148G | ≤ -4.2
A40U A137U G140C | -4.19
A40U C57G C105A | -0.98
A40G A52C A66U C75G C79G A120C | ≤ -4.2
A40C G100U U102G U135A | ≤ -4.2
A40C U53G A66G A119G | ≤ -4.2
A40C G94U C95G | -3.87
A40U C51U G83C | -0.981
A40C G81A | 0.951
A40U C63G | 0.0879
A40G A41C C43A G83C C87G C96A | ≤ -4.2
A40G G143A | -2.88

Variant | polymerase ribozyme fitness (log ratio)
A40C G48C G81U C85A | -1.52
A40G G124U | -2.64
A40G C87G C103A G117U | ≤ -4.2
A40G A52C G83U A98C | -3.64
A40G U45A U56A A60G G71C C118G | ≤ -4.2
A40G U56A | -1.21
A40G U53G G84A A110G G136U | ≤ -4.2
A40C U44G C63U C95U C103G A115G A142C | ≤ -4.2
A40U C54A A110G A120U | -4.07
A40U C79U A121G | -2.75
A40C G50A | -2.43
A40U A49C C72A C95U C99G A138C | ≤ -4.2
A40C G140U | -3.39
A40U A98G | -0.242
A40G C105U A115U A138G | ≤ -4.2
A40U A97U C108U | ≤ -4.2
A40C G84A U90G G100C | ≤ -4.2
A40C U45A G50A A73U G92A | ≤ -4.2
A40G U55A C76G G81A G86U C149U | ≤ -4.2
A40G C85G U111G U151C | ≤ -4.2
A40G C85A G133C G136A | -3.86
A40G C149A | -3.98
A40C U56A G128C | -3.92
A40G A52G A91C A119U G128A | ≤ -4.2

Variant | polymerase ribozyme fitness (log ratio)
A40G C76U C95U C116G | -3.42
A40G C87U | -1.53
A40G C85U | -2.16
A40C U134A | -1.77
A40U C54U A97U C99U | -2.64
A40C U135A | -0.385
A40G A47G U144G | -2.26
A40C U44A A60G C69U C72U G83C U104A U127G G152A | ≤ -4.2
A40U C54U C85U C108U | ≤ -4.2
A40U C75G C85G U135G G140U | ≤ -4.2
A40G A91G A115G C116G A142C | ≤ -4.2
A40U A106G C131U | 1.54
A40U C54U G71U C95A U146C G152A | ≤ -4.2
A40C U55G G58A U130A U135C | ≤ -4.2
A40G G48C A49C | ≤ -4.2
A40C U44A G59A C93A U109A | ≤ -4.2
A40G C85U C118A | -2.77
A40C U55A G59A A113U C123A | -0.982
A40U C57G | 0.32
A40C G48C U56G | -1.94
A40G C75G | -4.09
A40U A41C A49G C96A | -1.32
A40U A47C A66C C76U C93A A98G C99G U104C A150U | ≤ -4.2
A40U C57U A89C C99G A119G | -1.22

Variant | polymerase ribozyme fitness (log ratio)
A40C G50A A60U G88U G92C C95G G100U | ≤ -4.2
A40G A41C A52G G71U A107G U111G U139C U146G C149A U151G | ≤ -4.2
A40U A122C | 0.0565
A40C U55A G88A C108G C118U U130A | ≤ -4.2
A40G C43G A64C | ≤ -4.2
A40U C54A C87U A89C | -2.61
A40G A41G U53G C85A U127G C131U G143A | ≤ -4.2
A40G U56G C85A A115U U134C | -4.09
A40C G84A A97U | -2.32
A40U A91U U102A U104C U139A | ≤ -4.2
A40G A49U A60C C76A C96U U134G | ≤ -4.2
A40C U146G | -0.247
A40G U53G A73G G81U G94A | ≤ -4.2
A40U A47C A89U U134G | -2.3
A40G A52G A91U U102C A138U G143U | ≤ -4.2
A40U C69U G84C G143C | ≤ -4.2
A40C U55A U104C | -0.475
A40G G48U G58U C76A | ≤ -4.2
A40G A64G G136A | ≤ -4.2
A40U C57U C76A | -0.244
A40C U82G A89G | 0.203
A40U C57A G86A A110U C125A G141U | ≤ -4.2
A40C G42U U55A C85A | ≤ -4.2
A40C U56A C57U G140C | -3.75

Variant | polymerase ribozyme fitness (log ratio)
A40G G59A C93A | -4.07
A40C G92A U109C G141U | ≤ -4.2
A40U A106G | 0.3
A40C G92U G94A | 0.834
A40C U56A A89G | -0.978
A40G A73U A89G C93G U104G A106G U134A | ≤ -4.2
A40U C76A C79A C114U G143U U146C U148A | ≤ -4.2
A40U A52G C132G | -3.47
A40C U55A G59C C69U G84A | -2.39
A40U C63U G70C | -2.97
A40U C79G A91G | ≤ -4.2
A40C G88U C96U A122U U127G U148A A150U | ≤ -4.2
A40C U53A | 0.24
A40G G70C C85A | ≤ -4.2
A40G C57A C72U C87A | ≤ -4.2
A40G C63G C85U U145A | -2.16
A40C U148A | -3.51
A40G C95A U104G A142G | -3.8
A40C G141A | 0.793
A40G C96U | -1.81
A40U A107U C132G | ≤ -4.2
A40C G86A G141C A147C | ≤ -4.2
A40G G58C C87A C103G A110U U135A | ≤ -4.2
A40C U44G U53A C87G A107U A121U G124C U130A G143A | ≤ -4.2

Variant | polymerase ribozyme fitness (log ratio)
A40U C51U C93U | -1.15
A40G C69G G70U G83A A150U | ≤ -4.2
A40U A41C C96U | -0.566
A40C G143A | -0.684
A40G A52U A91C C108U G143C U148A | ≤ -4.2
A40C G50U U148A | ≤ -4.2
A40U A60C | -1.31
A40G G67U C85A A98U U144C U145A | ≤ -4.2
A40G U90G C95A G112C U127C | ≤ -4.2
A40C G46C C57A G74C C103A A107U C118G U134G G140C | ≤ -4.2
A40C G83A A97G | -1.2
A40G A60C U61A G81C U90G G94A C123A U139A | ≤ -4.2
A40C G50A C72U U78C C87U | ≤ -4.2
A40G G117A | -3.18
A40G C87U C103G | ≤ -4.2
A40G A47C C57U C85A A115U A119C A122G U144A | ≤ -4.2
A40U A52G G58C C75U G141U | -2.07
A40G U45A A47C C99U A115C G124C | ≤ -4.2
A40C G50C C79U G81C C118U | ≤ -4.2
A40G C54U C76U A91C C95G G143U | ≤ -4.2
A40U A49C | ≤ -4.2
A40G U77G G80A C93A A107G A120C A121U | ≤ -4.2
A40U A41U A49U G59A C87G U146G | ≤ -4.2
